From patent US20140370026A1

Molecular target: CD46 (UniProt P15529)
Experiment: cell-based or functional assay

CD46, sequence (P15529 35-392 limits assumed): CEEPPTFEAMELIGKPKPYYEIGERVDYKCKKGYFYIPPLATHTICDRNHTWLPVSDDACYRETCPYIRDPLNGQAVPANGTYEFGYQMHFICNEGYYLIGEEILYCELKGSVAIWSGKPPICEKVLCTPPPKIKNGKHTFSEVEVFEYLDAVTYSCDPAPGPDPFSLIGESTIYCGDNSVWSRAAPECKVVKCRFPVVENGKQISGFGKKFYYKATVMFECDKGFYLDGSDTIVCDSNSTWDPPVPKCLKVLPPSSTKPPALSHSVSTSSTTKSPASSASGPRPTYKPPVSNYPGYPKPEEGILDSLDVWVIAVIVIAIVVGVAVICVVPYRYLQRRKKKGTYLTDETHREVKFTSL

anti-CD46 antibody J4.48 (Chemicon International)
inhibition of human CMV (BADrUL131) infectivity of ARPE-19 epithelial cells (IE1 immunofluorescence): 77%
